As usually defined, the Km is the substrate concentration at which the rate is half of its maximum.

Data on 14 molecules can be found in patent US7560106B2, “Rationally designed heparinases derived from heparinase I and II and methods of sequencing therewith” (Massachusetts Institute of Technology, priority 1998, dated 2009).

The labels stand for the following.
B1: D210A/D212A: heparinase I CB-1 double mutant (protein, UniProt Q05819 22-384, looked up, variant D210A D212A)
Heparin lyase I: QQKKSGNIPYRVNVQADSAKQKAIIDNKWVAVGINKPYALQYDDKLRFNGKPSYRFELKAEDNSLEGYAAGETKGRTELSYSYATTNDFKKFPPSVYQNAQKLKTVYHYGKGICEQGSSRSYTFSVYIPSSFPDNATTIFAQWHGAPSRTLVATPEGEIKTLSIEEFLALYDRMIFKKNIAHDKVEKKAKAGKITYVAGKPNGWKVEQGGYPTLAFGFSKGYFYIKANSDRQWLTDKADRNNANPENSEVMKPYSSEYKTSTIAYKMPFAQFPKDCWITFDVAIDWTKYGKEANTILKPGKLDVMMTYTKNKKPQKAHIVNQQEILIGRNDDDGYYFKFGIYRVGNSTVPVTYNLSGYSETAR
B2: G213A: heparinase I CB-1 mutant, glycine 213 changed to alanine (protein, UniProt Q05819 22-384, looked up, variant G213A)
Heparin lyase I: B1 Heparin lyase I with A189D, A191D, G192A
B3: G213A/T216A: heparinase I CB-1 double mutant (protein, UniProt Q05819 22-384, looked up, variant G213A T216A)
Heparin lyase I: B1 Heparin lyase I with A189D, A191D, G192A, T195A
B4: T216A: heparinase I CB-1 mutant, threonine 216 changed to alanine (protein, UniProt Q05819 22-384, looked up, variant T216A)
Heparin lyase I: B1 Heparin lyase I with A189D, A191D, T195A
B5: Y379A: heparinase I CB-2 mutant, tyrosine 379 changed to alanine (protein, UniProt Q05819 22-384, looked up, variant Y379A)
Heparin lyase I: B1 Heparin lyase I with A189D, A191D, Y358A
B6: G378A: heparinase I CB-2 mutant, glycine 378 changed to alanine (protein, UniProt Q05819 22-384, looked up, variant G378A)
Heparin lyase I: B1 Heparin lyase I with A189D, A191D, G357A
B7: T373A: heparinase I CB-2 mutant, threonine 373 changed to alanine (protein, UniProt Q05819 22-384, looked up, variant T373A)
Heparin lyase I: B1 Heparin lyase I with A189D, A191D, T352A
B8: S377A: heparinase I mutant where serine 377 is mutated to alanine; calcium-independent (protein, UniProt Q05819 22-384, looked up, variant S377A)
Heparin lyase I: B1 Heparin lyase I with A189D, A191D, S356A
B9: T382A: heparinase I CB-2 mutant, threonine 382 changed to alanine (protein, UniProt Q05819 22-384, looked up, variant T382A)
Heparin lyase I: B1 Heparin lyase I with A189D, A191D, T361A
B10: D210A: heparinase I CB-1 mutant, aspartate 210 changed to alanine (protein, UniProt Q05819 22-384, looked up, variant D210A)
Heparin lyase I: B1 Heparin lyase I with A191D
B11: D212A: heparinase I CB-1 mutant, aspartate 212 changed to alanine (protein, UniProt Q05819 22-384, looked up, variant D212A)
Heparin lyase I: B1 Heparin lyase I with A189D
B12: E207A/D210A: heparinase I CB-1 double mutant (protein, UniProt Q05819 22-384, looked up, variant E207A D210A)
Heparin lyase I: B1 Heparin lyase I with E186A, A191D
B13: E207A/D212A: heparinase I CB-1 double mutant (protein, UniProt Q05819 22-384, looked up, variant E207A D212A)
Heparin lyase I: B1 Heparin lyase I with E186A, A189D
B14: D212A/T216A: heparinase I CB-1 double mutant (protein, UniProt Q05819 22-384, looked up, variant D212A T216A)
Heparin lyase I: B1 Heparin lyase I with A189D, T195A

Numbering of substitutions follows the chain as printed. Names and notes keep the numbering of the source. “Also recorded” adds a separate entry of the source.

One data set in a line: Heparinase I UV 232 nm activity assay as a function of heparin concentration (Kcat, Km). It counts as biochemical, porcine.
Settings: not given
The source says:
Heparinase II Activity Assay. Native heparinase II from Flavobacterium heparinum, was purified as described previously (Godavarti, R., and Sasisekharan, R (1996c) Biochem. Biophys. Res. Comm. 229, 770-777). The UV 232 nm assay to quantify native heparinase II enzymatic activity was similar to that reported for heparinase I (Bernstein, H., Yang, V. C., Cooney, C. L., Langer, R. (1988) Meth. Enzym. 137, 515-29). Briefly, the course of the reaction is monitored by measuring the increase in absorbance at 232 nm as a function of time under saturating substrate concentrations. With heparin as the substrate, the reaction was carried out at a concentration of 4 mg/ml in 50 mM sodium phosphate buffer, pH 7.3. With 2 mg/ml heparan sulfate, the reaction was measured in 50 mM sodium phosphate buffer, pH 6.9 (Sasisekharan, R., Moses, M. A., Nugent, M. A., Cooney, C. L., Langer, R. (1994) Proc. Natl. Acad. Sci., USA 91, 1524-1528). The temperature for all enzymatic activity measurements was kept constant at 35° C.
Heparinase I Activity Assay. The UV 232 nm assay to quantify heparinase I enzymatic activity was similar to that described in Example 1. With heparin as the substrate, the reaction was carried out at a concentration of 4 mg/ml in 100 mM MOPS, 5 mM calcium acetate, pH 7.0. The temperature for all enzymatic activity measurements was kept constant at 30° C. For the inactivation kinetic profiles, activity was measured as outlined above at precise time points.
(§1) Heparinase I Activity Assays: The UV 232 nm assay was used as described in Example 1. When measuring the enzyme activity as a function of heparin concentration, heparin concentrations varied from 0 to 4 mg/ml at a fixed calcium concentration of 5 mM (100 mM MOPS buffer/5 mM calcium acetate, pH 7.0). The data was then fit to an non-linear equation to determine Kcat and Km of heparinases I. Heparinase mutant activity was also investigated as a function of calcium concentration ranging from 0 to 10 mM. […] Activity is expressed as IU-μmol product formed/min using ∈=−3800-M^−1CM^−1.
B1: the “decrease in Kcat compared to wild-type r-heparinase I” value (“decrease in Kcat” for short) is 4.5 fold.
As to B2, the “decrease in Kcat” value is listed as “about 3 fold”.
Turning to B3, the “decrease in Kcat” value is 5 fold.
Still for that read-out and setting: to B4 belongs roughly 2 fold.
For the molecule B5, the “decrease in Kcat” value was “about 10 fold”.

The data set is the same for the next values; noted with them: compared to wild-type r-heparinase I.
On to B6, for which the “effect on enzyme activity (kcat), in words” value was “decreased only by about 1 half”.
Still for that read-out and setting: to B7 belongs “no significant decrease in enzyme activity”; to B8, “no significant decrease in enzyme activity”; to B9, “decreased only by about 1 half”.

Staying with this data set, now noted: heparin 0 to 4 mg/ml, 5 mM calcium acetate, 100 mM MOPS, pH 7.0.
For the molecule B10, the Kcat was 74 s⁻¹.
Still for that read-out and setting: to B1 belongs 21 s⁻¹; to B6, 41 s⁻¹.
The same measure, in the same setting: to B7 belongs 85 s⁻¹.
Turning to B2, the Kcat stood at 28 s⁻¹.
B11: the Kcat worked out at 65 s⁻¹.
For the molecule B12, the Kcat is 65 s⁻¹.
Turning to B8, the Kcat is 71 s⁻¹.
Take B3: the Kcat came out at 19 s⁻¹.
Regarding B4, the Kcat was determined as 50 s⁻¹.
With B9, the Kcat worked out at 65 s⁻¹.
Still for that read-out and setting: to B13 belongs 58 s⁻¹.
As to B5, the Kcat worked out at 9 s⁻¹.
In the case of B14, the Kcat turned out to be 52 s⁻¹.

The same data set, now with this note: heparin 0 to 4 mg/ml, 5 mM calcium acetate, pH 7.0.
For the molecule B10, the Km stood at 2.64 µM.
As for B1, the Michaelis constant (Km) turned out to be 0.32 µM.
As to B6, the Km was determined as 0.74 µM.
As to B7, the Km is 0.96 µM.
On to B2, for which the Michaelis constant (Km) stood at 0.97 µM.
For the molecule B11, the Km is 1.94 µM.
Still for that read-out and setting: under B12 stands 2.77 µM.
The same measure, in the same setting: under B8 stands 2.74 µM; under B3, 0.83 µM.
As for B4, the Michaelis constant (Km) was 1.45 µM.
With B9, the Km turned out to be 1.64 µM.
Consider B13, for which the Km stood at 0.93 µM.
Turning to B5, the Km was found to be 0.32 µM.
As to B14, the Km turned out to be 1.52 µM.

The next data set is described as follows: Heparin-POROS affinity chromatography. It counts as binding.
Settings: not given
On the procedure:
Heparin-POROS chromatography: About 30-40 μg of -L r-heparinase I and the various mutant enzymes were injected into a heparin POROS (4.6 mm×100) column (PerSeptive BioSystems, Framingham, Mass.) connected to BioCAD system (PerSeptive BioSystems). Proteins were eluted using a linear gradient of […] NaCl in 10 min (10 mM Tris, 1 mM EDTA pH 7.0) and monitored at 210 nm. EDTA was added to chelate any calcium ions that may be present in the buffers.
As for B6, the “elution salt concentration / heparin binding relative to wild-type r-heparinase I, in words” value is “comparable to wild-type r-heparinase I”.
As to B7, the “elution salt concentration / heparin binding relative to wild-type r-heparinase I, in words” value is listed as “comparable to wild-type r-heparinase I”.
With B8, the “elution salt concentration / heparin binding relative to wild-type r-heparinase I, in words” value is given as “comparable to wild-type r-heparinase I”.
Take B9: the “elution salt concentration / heparin binding relative to wild-type r-heparinase I, in words” value is given as “comparable to wild-type r-heparinase I”.
Regarding B5, the “elution salt concentration / heparin binding relative to wild-type r-heparinase I, in words” value is given as “comparable to wild-type r-heparinase I”.

Still in this data set, the particulars now being: salt concentration at which enzyme elutes from heparin-POROS column; 10 mM Tris, 1 mM EDTA pH 7.0.
In the case of B10, the NaCl was determined as 500 mM.
Regarding B1, the NaCl is listed as 515 mM.
B6: the NaCl is given as 489 mM.
Regarding B7, the NaCl was 480 mM.
On to B2, for which the NaCl stood at 476 mM.
Consider B11, for which the NaCl is listed as 498 mM.
In the case of B12, the NaCl is given as 513 mM.
Regarding B8, the NaCl came out at 486 mM.
Regarding B3, the NaCl turned out to be 498 mM.
Turning to B4, the NaCl turned out to be 479 mM.
As for B9, the NaCl is listed as 488 mM.
In the case of B13, the NaCl was determined as 513 mM.
As for B5, the NaCl stood at 489 mM.
The same measure, in the same setting: to B14 belongs 497 mM.

A short description of the next data set: Heparinase I activity as a function of calcium concentration (K0.5, calcium dependence). The class given is biochemical.
Settings: not given
On the procedure: as §1
Take B8: the “dependence of enzyme activity on calcium” value is on record as “loss of dependence on calcium; also recorded: calcium-independent”.

Still in this data set, the particulars now being: Table 4 second K0.5 column.
With B10, the K0.5 worked out at 310 µM.
With B1, the K0.5 worked out at 700 µM.
For B6, the K0.5 is 80 µM.
Same read-out and setting: to B7 belongs 50 µM; to B2, 740 µM.
On to B11, for which the K0.5 came out at 370 µM.
B12: the K0.5 was 470 µM.
With B8, the K0.5 came to 50 µM.
Take B3: the K0.5 amounted to 2200 µM.
For B4, the K0.5 turned out to be 430 µM.
Turning to B9, the K0.5 was 100 µM.
In the case of B13, the K0.5 is 710 µM.
As for B5, the K0.5 was 230 µM.
Turning to B14, the K0.5 turned out to be 320 µM.

Still in this data set, the particulars now being: calcium concentration at which half of the maximum enzyme activity was observed; calcium 0 to 10 mM; Table 4 first K0.5 column.
With B10, the K0.5 was 310 µM.
As for B1, the K0.5 was 700 µM.
On the same count and under the same terms, under B6 stands 80 µM; under B7, 50 µM.
For the molecule B2, the K0.5 amounted to 740 µM.
Turning to B11, the K0.5 was determined as 370 µM.
For the molecule B12, the K0.5 is 470 µM.
As for B8, the K0.5 was found to be 50 µM.
For the molecule B3, the K0.5 was found to be 2200 µM.
On the same count and under the same terms, to B4 belongs 430 µM.
In the case of B9, the K0.5 was 100 µM.
On to B13, for which the K0.5 was 710 µM.
Take B5: the K0.5 turned out to be 230 µM.
Regarding B14, the K0.5 worked out at 320 µM.
